In the supplement of paper PMC9732359:
± gives the uncertainty stated by the source.

Experiment: protein stability index of a GFP-peptide fusion (yeast GPS) (PSI 1-4); higher = more stable; sorted into four equal gates, so the index is relative within each strain
How it was run: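 Tiled 17-residue yeast protein peptides were fused downstream of GFP in a plasmid that also expresses Cherry, and the pooled library was carried in yeast. Mid-log cultures in leucine-free medium were sorted into four equal gates by GFP/Cherry fluorescence ratio, and plasmids from each gate were PCR-amplified and Illumina-sequenced, with reads assigned to strains by barcodes. The protein stability index for each peptide was each gate's read frequency times its gate number, summed.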

| Sequence | protein stability index (doa10∆) | protein stability index (pdr5∆) | protein stability index (san1∆) | protein stability index (ubr1∆) |
| --- | --- | --- | --- | --- |
| PETGDHVVGRIAEVGNK [RRP4] | 3.27 ± 0.076 | 3.44 ± 0.065 | 3.05 ± 0.1 | 3.08 ± 0.15 |
| SPRNTYQCAMGKQAIGA [RET1] | 1.94 ± 0.14 | 2.57 ± 0.14 | 2.83 ± 0.15 | – |
| FEKDLMAYFDENLNRNW [BRN1] | 2.93 ± 0.059 | 3.27 ± 0.063 | 3.14 ± 0.056 | 3.17 ± 0.057 |
| DADKLSFNCENFFQAPQ [YML031W/NDC1] | 2.37 ± 0.08 | 2.15 ± 0.058 | 2.36 ± 0.06 | 2.3 ± 0.058 |
| DIIMNPHGFPSRMTVGK [RET1] | 2.67 ± 0.056 | 2.83 ± 0.076 | 2.79 ± 0.049 | 2.71 ± 0.065 |
| SEDLFADGLLQVLVCTA [BRR2] | – | – | – | 2.25 ± 0.13 |
| SPTESYSDIGGLESQIQ [RPT2] | 3.3 ± 0.14 | 3.53 ± 0.14 | 3.41 ± 0.06 | 3.29 ± 0.076 |
| NSMEYTGKITKMFQDIR [CDC53] | 3.06 ± 0.27 | 3.41 ± 0.14 | 2.96 ± 0.085 | 3.28 ± 0.078 |
| ANSSTIRVTNSFALPFE [RPN8] | 2.46 ± 0.065 | 2.18 ± 0.05 | 2.73 ± 0.063 | 3.14 ± 0.039 |
| LGSQSKSDEGGSYLCTS [YOR098C/NUP1] | 3.26 ± 0.11 | 2.98 ± 0.07 | 3.14 ± 0.069 | 2.71 ± 0.081 |
| MRAKWRKKRTRRLKRKR [RPL41A] | 3.47 ± 0.16 | 3.06 ± 0.13 | 3.34 ± 0.16 | 3.44 ± 0.15 |
| IEYCSAQPSVQSSFAGT [FAS2] | 2.72 ± 0.11 | 3.07 ± 0.094 | 2.77 ± 0.073 | 2.56 ± 0.059 |
| NILALNLVSLLIIVTRK [YML031W/NDC1] | 1.92 ± 0.072 | 1.35 ± 0.044 | 1.2 ± 0.11 | 1.32 ± 0.039 |
| LIRNVGTNTYRLGEWSK [POP1] | 1.9 ± 0.28 | 1.29 ± 0.22 | 1.12 ± 0.28 | – |
| PNEFEIQLSTVNRQSPL [RGR1] | 2.19 ± 0.063 | 2.65 ± 0.057 | 2.69 ± 0.054 | 2.45 ± 0.055 |
| TKIKDAEEDSLLSGEDL [YJL039C/NUP192] | 3.35 ± 0.16 | 3.45 ± 0.086 | 3.14 ± 0.16 | 3.38 ± 0.12 |
| AKEVYKIHQQLLFKARL [GAL11] | – | 3.18 ± 0.18 | – | 2.84 ± 0.25 |
| LIIDDPSKGQSLSKISQ [RPP1] | 2.77 ± 0.07 | 2.81 ± 0.063 | 3.04 ± 0.055 | 3.02 ± 0.056 |
| NKLRQQAIAKNNPQVVN [SNF5] | 1.54 ± 0.035 | 1.94 ± 0.042 | 1.81 ± 0.049 | 1.65 ± 0.03 |
| TRAKAKVEEMNNIIAAS [RPL36A] | – | 3.18 ± 0.14 | – | – |
| AFSFGAKSNEDKQDGTA [YJL041W/NSP1] | 3.24 ± 0.13 | 2.98 ± 0.16 | 3 ± 0.2 | 3.44 ± 0.14 |
| QARTATLKYICAECSSK [RPC10] | 2.72 ± 0.12 | 2.98 ± 0.1 | 2.84 ± 0.065 | 2.79 ± 0.073 |
| NTLGKGQNCLDIDGIMD [SNU114] | 3.3 ± 0.23 | 3.15 ± 0.1 | 3.02 ± 0.12 | 3.2 ± 0.11 |
| LYAERVQDRGLSAVAQA [RPS3] | 3.09 ± 0.069 | 3.28 ± 0.065 | 3.3 ± 0.09 | 3.22 ± 0.044 |
| ISLEALNFYITNVPKAK [SIR3] | 2.67 ± 0.065 | 2.82 ± 0.063 | 2.62 ± 0.053 | 2.87 ± 0.035 |
| HLDSFNYFVDTDLKKII [RET1] | 2.69 ± 0.094 | 2.85 ± 0.08 | 2.67 ± 0.1 | 2.64 ± 0.038 |
| QGEVGAVFIVPKILIRE [SWP82] | 2.03 ± 0.14 | 2.36 ± 0.21 | 1.69 ± 0.15 | 2.13 ± 0.2 |
